Measurements as given in US20250242021A1 (BLUESPHERE BIO, published 2025).

Target: HA-1 “H” peptide (…) presented on LCL222 cells (H/H)
Experiment: cell-based or functional assay

B1: anti-HA-1 “H” epitope TCR (TCR, V domains shown)
V domain 1: AQSVAQPEDQVNVAEGNPLTVKCTYSVSGNPYLFWYVQYPNRGLQFLLKYITGDNLVKGSYGFEAEFNKSQTSFHLKKPSALVSDSALYFCAVRAPTSGTYKYIFGTGTRLKVLA
V domain 2: GVSQDPRHKITKRGQNVTFRCDPISEHNRLYWYRQTLGQGPEFLTYFQNEAQLEKSRLLSDRFSAERPKGSFSTLEIQRTEQGDSAMYLCASSLVSGNEQFFGPGTRLTVLE
E:T ratio at which target cells were almost undetectable, cytotoxicity killing assay: 1.38 E:T ratio | EC50, cytotoxicity killing assay (E:T ratio): 0.49 E:T ratio
